Assay results from patent publication US20050037969A1 (ARBOR VITA, published 2005).
Ends that are not written are not given here. * marks the point of attachment. Biotin = O=C1N[C@H]2[C@H](CS[C@H]2CCCCC(=O)*)N1

B1: CD44 C-terminal peptide AA9L, biotinylated (peptide)
peptide: Biotin-QFMTADETRNLQNVDMKIGV
notes: also called CD44 (long form)
B2: DNAM-1 C-terminal peptide AA22L, biotinylated (peptide)
peptide: Biotin-TREDIYVNYPTFSRRPKTRV
B3: VCAM1 C-terminal peptide AA17L, biotinylated (peptide)
peptide: Biotin-ARKANMKGSYSLVEAQKSKV
notes: also called CD106
B4: V-gated Ca2+ channel C-terminal peptide AA46L (peptide)
peptide: Biotin-SSGGRARHSYHHPDQDHWC
notes: Marked (S), sticky peptide with high background; also called V-gated Ca2+ channel (S)
B5: PAG C-terminal peptide AA58L, biotinylated (peptide)
peptide: Biotin-KENDYESISDLQQGRDITRL
notes: also called Phosphoprotein Associated with GEMs

The binders below were run against T1, GST-CASK PDZ domain fusion protein (Homo sapiens, UniProt O14936 486-575) (assay: A/G assays).
T1 construct: also called Homo sapiens CASK protein
T1 sequence: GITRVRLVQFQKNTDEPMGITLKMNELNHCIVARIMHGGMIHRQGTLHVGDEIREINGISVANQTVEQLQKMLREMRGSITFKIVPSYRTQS
B1: no binding.
B2: no binding.
B3: no binding.
B4: no binding.
B5: no binding.

What follows are binders tested against T2, GST-TAX-IP43 PDZ domain fusion protein (human, UniProt Q13884 109-180) (assay: A/G assays).
T2 construct: also called TAX43; not shown: glutathione S-transferase encoded by vector pGEX-3X (Pharmacia)
T2 sequence: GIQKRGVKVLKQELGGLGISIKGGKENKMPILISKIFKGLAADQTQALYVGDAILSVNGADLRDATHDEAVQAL
B1: no binding.
B2: no binding.
B3: no binding.
B4: no binding.
B5: no binding.

Target: T3, GST-TAX-IP2 PDZ domain fusion protein (human, UniProt O14908 129-216)
T3 construct: also called TAX-1P2; TAX2; not shown: glutathione S-transferase encoded by vector pGEX-3X (Pharmacia)
T3 chain: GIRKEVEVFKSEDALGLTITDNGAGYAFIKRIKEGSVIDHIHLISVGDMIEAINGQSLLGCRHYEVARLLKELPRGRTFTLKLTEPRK
Assay: A/G assays
B1: no binding.
B2: no binding.
B3: no binding.
B4: no binding.
B5: no binding.

These binders were tested against T4, GST-PTN-4 PDZ domain fusion protein (Homo sapiens (Human), UniProt P29074 517-605) (assay: A/G assays).
T4 construct: also called protein-tyrosine phosphatase meg1; not shown: glutathione S-transferase encoded by vector pGEX-3X (Pharmacia)
T4 sequence: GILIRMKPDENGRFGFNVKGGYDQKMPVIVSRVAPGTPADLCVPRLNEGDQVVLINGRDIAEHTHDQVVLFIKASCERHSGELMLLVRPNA
B1: no binding.
B2: no binding.
B3: no binding.
B4: no binding.
B5: no binding.

What follows are binders tested against T5, GST-MPP1 PDZ domain fusion protein (Homo sapiens (Human), UniProt Q00013 67-152) (assay: A/G assays).
T5 construct: also called p55; 55 Kd erythrocyte membrane protein; not shown: glutathione S-transferase encoded by vector pGEX-3X (Pharmacia)
T5 sequence: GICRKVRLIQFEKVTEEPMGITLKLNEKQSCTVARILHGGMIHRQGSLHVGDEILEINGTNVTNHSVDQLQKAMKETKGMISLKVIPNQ
B4: no binding.
B5: no binding.

Each binder was assayed against T6, GST-prIL16 fusion protein (PDZ domains 1-2) (Homo sapiens (Human), UniProt Q14005 1111-1324) (assay: A/G assays).
T6 construct: also called putative interleukin 16 precursor; not shown: glutathione S-transferase encoded by vector pGEX-3X (Pharmacia)
T6 sequence: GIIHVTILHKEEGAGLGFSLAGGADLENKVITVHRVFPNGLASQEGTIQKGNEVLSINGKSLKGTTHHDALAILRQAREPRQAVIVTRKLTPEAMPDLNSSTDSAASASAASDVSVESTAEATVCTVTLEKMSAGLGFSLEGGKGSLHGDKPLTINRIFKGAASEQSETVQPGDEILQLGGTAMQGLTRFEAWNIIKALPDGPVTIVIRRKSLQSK
B2: no binding.
B3: no binding.
B4: no binding.
B5: no binding.

What follows are binders tested against T7, GST-cytohesin binding protein PDZ domain fusion protein (Homo sapiens (Human), UniProt O60759 74-165) (assay: A/G assays).
T7 construct: also called CBP; not shown: glutathione S-transferase encoded by vector pGEX-3X (Pharmacia)
T7 sequence: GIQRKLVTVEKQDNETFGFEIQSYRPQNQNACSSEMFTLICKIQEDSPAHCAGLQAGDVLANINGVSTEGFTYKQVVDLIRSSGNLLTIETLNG
B1: no binding.
B2: no binding.
B3: no binding.
B4: no binding.
B5: no binding.

The binders below were run against T8, GST-AF6 PDZ domain fusion protein (Homo sapiens (Human), UniProt P55196 1001-1093) (assay: A/G assays).
T8 construct: also called af-6 protein; not shown: glutathione S-transferase encoded by vector pGEX-3X (Pharmacia)
T8 sequence: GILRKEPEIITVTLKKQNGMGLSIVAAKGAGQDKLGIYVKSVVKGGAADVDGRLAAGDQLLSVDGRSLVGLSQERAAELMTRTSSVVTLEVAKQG
B1: no binding.
B3: no binding.
B4: no binding.
B5: no binding.

These binders were tested against T9, GST-RGS12 PDZ domain fusion protein (human, UniProt O14924 17-85) (assay: A/G assays).
T9 construct: also called human regulator of G-protein signalling 12; not shown: glutathione S-transferase encoded by vector pGEX-3X (Pharmacia)
T9 sequence: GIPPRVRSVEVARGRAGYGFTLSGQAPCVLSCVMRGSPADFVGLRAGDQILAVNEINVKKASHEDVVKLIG
B1: no binding.
B3: no binding.
B4: no binding.
B5: no binding.

Target: T10, GST-mouse syntenin fusion protein (Mus musculus, UniProt O08992 108-286)
T10 construct: also called Mus musculus Syntenin; not shown: glutathione S-transferase encoded by vector pGEX-3X (Pharmacia)
T10 chain: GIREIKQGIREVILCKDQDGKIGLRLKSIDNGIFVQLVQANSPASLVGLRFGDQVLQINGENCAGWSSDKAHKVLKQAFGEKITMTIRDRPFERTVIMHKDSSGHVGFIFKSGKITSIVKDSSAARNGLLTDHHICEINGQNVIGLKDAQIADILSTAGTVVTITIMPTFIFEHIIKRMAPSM
Assay: A/G assays
B2: no binding.
B3: no binding.
B4: no binding.
B5: no binding.

Target: T11, X11β PDZ-GST fusion protein (Rattus norvegicus (Rat), UniProt O35431 560-745)
T11 construct: Order of GST and PDZ part and limits not seen in the excerpts
T11 chain: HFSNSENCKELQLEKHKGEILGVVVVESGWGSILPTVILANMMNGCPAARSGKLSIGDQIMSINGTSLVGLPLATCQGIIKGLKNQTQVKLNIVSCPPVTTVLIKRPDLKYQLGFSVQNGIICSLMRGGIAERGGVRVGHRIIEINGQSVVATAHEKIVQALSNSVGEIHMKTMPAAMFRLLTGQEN
Assay: A/G assays
B1: no binding.
B2: no binding.
B3: no binding.
B4: no binding.
B5: no binding.

What follows are binders tested against T12, PICK1 PDZ-GST fusion protein (Bos taurus (Bovine), UniProt Q2T9M1 17-105) (assay: A/G assays).
T12 construct: Order of GST and PDZ part and limits not seen in the excerpts
T12 sequence (Q2T9M1 other isoform, or with tags, fused parts or gaps limits assumed): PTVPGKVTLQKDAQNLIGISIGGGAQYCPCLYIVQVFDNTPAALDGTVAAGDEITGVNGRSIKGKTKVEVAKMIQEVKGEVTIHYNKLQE
B1: no binding.
B2: no binding.
B3: no binding.
B5: no binding.

These binders were tested against T13, K316 PDZ-GST fusion protein (Homo sapiens (Human), UniProt Q14CM0 72-159) (assay: A/G assays).
T13 construct: Order of GST and PDZ part and limits not seen in the excerpts
T13 sequence (Q14CM0 72-159 limits assumed): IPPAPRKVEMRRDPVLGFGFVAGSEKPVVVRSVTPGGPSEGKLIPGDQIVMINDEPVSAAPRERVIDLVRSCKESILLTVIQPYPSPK
B1: no binding.
B2: no binding.
B3: no binding.

What follows are binders tested against T14, K858 PDZ-GST fusion protein (Homo sapiens (Human), UniProt Q8WWI1 1038-1131) (assay: A/G assays).
T14 construct: Order of GST and PDZ part and limits not seen in the excerpts
T14 sequence: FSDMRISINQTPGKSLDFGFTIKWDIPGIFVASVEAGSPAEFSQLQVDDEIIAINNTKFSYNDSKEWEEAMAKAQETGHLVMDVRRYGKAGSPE
B1: no binding.
B2: no binding.
B3: no binding.
B4: no binding.
B5: no binding.

Each binder was assayed against T15, ConEn PDZ-GST fusion protein (Homo sapiens (Human), UniProt Q969H4 193-287) (assay: A/G assays).
T15 construct: The label ConEn is not explained in the excerpts
T15 sequence: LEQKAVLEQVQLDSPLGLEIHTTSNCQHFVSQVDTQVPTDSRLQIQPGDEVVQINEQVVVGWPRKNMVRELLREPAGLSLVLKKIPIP
B1: no binding.
B2: no binding.
B3: no binding.
B5: no binding.
